Here are results for one substance from article PMC3695782.

The target of the series is HIV-1 reverse transcriptase WT (Human immunodeficiency virus type 1) (UniProt P04585+P04585). Nature of the series: EMSA. Conditions: EFdA-MP at primer 3' end; Footprinting: 120 mM sodium cacodylate pH 7, 20 mM NaCl, 6 mM MgCl2, 1 uM EFdA-TP, 7 min pre-incubation with dTTP, then 1 mM ammonium iron sulfate 5 min …. In general terms: A gel shift assay detects complexes by their altered migration in electrophoresis.

As to T/P-EFdA-MP (gel shift), the binding signal (fold stronger than K65R) came to 1.3.
